The text below walks through data of paper PMC11050165.

This experiment has as its target Haemophilus influenzae tellurite-resistance protein A (HiTehA) (Haemophilus influenzae) (UniProt P44741). Put plainly: cryo-EM structure; single-particle cryo-EM at 200 kV (Glacios, Falcon 4) of purified HiTehA at 3.0 mg/mL in detergent micelles (DDM, GDN, LMNG or OG); C3 symmetry imposed; no binding protein used.

The term stoichiometry N denotes a count of units in the complex or per binding partner. “Haemophilus influenzae tellurite-resistance protein A (HiTehA) (from UniProt P44741 1-328) (natural protein)” returned a stoichiometry N of 3.
